Non-standard residues stand in square brackets, D forms with d. Residues, ends and D or L forms follow the SMILES beside them.
B1: c[Pro-Arg-Phe-Phe-Leu-Ala-Phe-DPro] (peptide)
peptide: cyclo(PRFFLAF[dP])
SMILES: CC(C)C[C@@H]1NC(=O)[C@H](Cc2ccccc2)NC(=O)[C@H](Cc2ccccc2)NC(=O)[C@H](CCCNC(=N)N)NC(=O)[C@@H]2CCCN2C(=O)[C@H]2CCCN2C(=O)[C@H](Cc2ccccc2)NC(=O)[C@H](C)NC1=O
B2: c[Pro-Arg-Phe-Phe-Glu-Ala-Phe-DPro] (peptide)
peptide: cyclo(PRFFEAF[dP])
B3: c[Pro-Arg-Phe-Phe-Val-Ala-Phe-DPro] (peptide)
peptide: cyclo(PRFFVAF[dP])
B4: c[Pro-Arg-Phe-Phe-Ala-Ala-Phe-DPro] (peptide)
peptide: cyclo(PRFFAAF[dP])
B5: c[Pro-Arg-Phe-Phe-Asn-Asp-Phe-DPro] (peptide)
peptide: cyclo(PRFFNDF[dP])
SMILES: N=C(N)NCCC[C@@H]1NC(=O)[C@@H]2CCCN2C(=O)[C@H]2CCCN2C(=O)[C@H](Cc2ccccc2)NC(=O)[C@H](CC(=O)O)NC(=O)[C@H](CC(N)=O)NC(=O)[C@H](Cc2ccccc2)NC(=O)[C@H](Cc2ccccc2)NC1=O
B6: c[Pro-Arg-Phe-Phe-Asn-Ser-Phe-DPro] (peptide)
peptide: cyclo(PRFFNSF[dP])
SMILES: N=C(N)NCCC[C@@H]1NC(=O)[C@@H]2CCCN2C(=O)[C@H]2CCCN2C(=O)[C@H](Cc2ccccc2)NC(=O)[C@H](CO)NC(=O)[C@H](CC(N)=O)NC(=O)[C@H](Cc2ccccc2)NC(=O)[C@H](Cc2ccccc2)NC1=O
B7: c[Pro-Arg-Phe-Phe-Asn-Gly-Phe-DPro] (peptide)
peptide: cyclo(PRFFNGF[dP])
SMILES: N=C(N)NCCC[C@@H]1NC(=O)[C@@H]2CCCN2C(=O)[C@H]2CCCN2C(=O)[C@H](Cc2ccccc2)NC(=O)CNC(=O)[C@H](CC(N)=O)NC(=O)[C@H](Cc2ccccc2)NC(=O)[C@H](Cc2ccccc2)NC1=O
B8: c[Pro-Arg-Phe-Phe-Ser-Ala-Phe-DPro] (peptide)
peptide: cyclo(PRFFSAF[dP])
B9: c[Pro-Arg-Phe-Phe-Asn-Lys-Phe-DPro] (peptide)
peptide: cyclo(PRFFNKF[dP])
SMILES: N=C(N)NCCC[C@@H]1NC(=O)[C@@H]2CCCN2C(=O)[C@H]2CCCN2C(=O)[C@H](Cc2ccccc2)NC(=O)[C@H](CCCCN)NC(=O)[C@H](CC(N)=O)NC(=O)[C@H](Cc2ccccc2)NC(=O)[C@H](Cc2ccccc2)NC1=O
B10: c[Pro-Arg-Phe-Phe-Thr-Ala-Phe-DPro] (peptide)
peptide: cyclo(PRFFTAF[dP])
SMILES: C[C@@H]1NC(=O)[C@H]([C@@H](C)O)NC(=O)[C@H](Cc2ccccc2)NC(=O)[C@H](Cc2ccccc2)NC(=O)[C@H](CCCNC(=N)N)NC(=O)[C@@H]2CCCN2C(=O)[C@H]2CCCN2C(=O)[C@H](Cc2ccccc2)NC1=O
B11: c[Pro-Arg-Phe-Phe-Asp-Ala-Phe-DPro] (peptide)
peptide: cyclo(PRFFDAF[dP])
B12: c[Pro-Arg-Phe-Phe-Asn-Ala-Ala-DPro] (peptide)
peptide: cyclo(PRFFNAA[dP])
SMILES: C[C@@H]1NC(=O)[C@H](CC(N)=O)NC(=O)[C@H](Cc2ccccc2)NC(=O)[C@H](Cc2ccccc2)NC(=O)[C@H](CCCNC(=N)N)NC(=O)[C@@H]2CCCN2C(=O)[C@H]2CCCN2C(=O)[C@H](C)NC1=O
B13: c[Pro-Arg-Phe-Phe-His-Ala-Phe-DPro] (peptide)
peptide: cyclo(PRFFHAF[dP])
SMILES: C[C@@H]1NC(=O)[C@H](Cc2c[nH]cn2)NC(=O)[C@H](Cc2ccccc2)NC(=O)[C@H](Cc2ccccc2)NC(=O)[C@H](CCCNC(=N)N)NC(=O)[C@@H]2CCCN2C(=O)[C@H]2CCCN2C(=O)[C@H](Cc2ccccc2)NC1=O

Columns and labels:
[1] = molecular target: mMC1R (Mus musculus, UniProt Q01727); experiment: AlphaScreen cAMP assay, agonist activity; details: up to 100 μM concentrations
[2] = molecular target: mMC4R (Mus musculus, UniProt P56450); experiment: AlphaScreen cAMP assay, agonist activity; details: up to 100 μM concentrations
[3] = molecular target: T1, mMC5R (Mus musculus, UniProt P41149); experiment: cell-based
[4] = molecular target: mMC3R (Mus musculus, UniProt P33033); experiment: AlphaScreen cAMP assay, agonist activity; details: up to 100 μM concentrations
[5] = molecular target: T1, mMC5R
[6] = molecular target: mouse melanocortin-3 receptor (mouse) (UniProt P33033)
[7] = molecular target: mouse melanocortin-1 receptor (mouse) (UniProt Q01727)
[8] = molecular target: mouse melanocortin-4 receptor (mouse) (UniProt P56450)
mouse melanocortin-4 receptor (mouse), sequence (P56450 whole entry): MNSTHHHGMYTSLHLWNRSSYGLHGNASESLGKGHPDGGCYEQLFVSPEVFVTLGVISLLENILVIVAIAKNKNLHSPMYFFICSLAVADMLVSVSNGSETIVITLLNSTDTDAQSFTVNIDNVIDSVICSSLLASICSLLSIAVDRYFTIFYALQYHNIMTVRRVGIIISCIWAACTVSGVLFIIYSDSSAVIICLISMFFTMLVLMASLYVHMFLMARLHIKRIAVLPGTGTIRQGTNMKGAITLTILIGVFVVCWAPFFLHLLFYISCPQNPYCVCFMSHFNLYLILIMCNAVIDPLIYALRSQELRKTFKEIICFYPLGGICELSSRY

T1 sequence (P41149 whole entry): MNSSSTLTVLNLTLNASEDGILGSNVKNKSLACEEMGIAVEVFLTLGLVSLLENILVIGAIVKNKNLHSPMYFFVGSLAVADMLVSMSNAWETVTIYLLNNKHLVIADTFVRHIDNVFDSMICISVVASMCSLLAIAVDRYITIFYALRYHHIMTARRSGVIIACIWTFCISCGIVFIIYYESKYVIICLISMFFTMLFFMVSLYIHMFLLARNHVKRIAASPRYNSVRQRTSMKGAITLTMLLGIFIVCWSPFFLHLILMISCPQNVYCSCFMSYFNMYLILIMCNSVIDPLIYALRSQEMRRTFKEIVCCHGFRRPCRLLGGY
mMC4R, sequence (P56450 whole entry): as the sequence (P56450 whole entry) above
mMC1R, sequence (Q01727 whole entry): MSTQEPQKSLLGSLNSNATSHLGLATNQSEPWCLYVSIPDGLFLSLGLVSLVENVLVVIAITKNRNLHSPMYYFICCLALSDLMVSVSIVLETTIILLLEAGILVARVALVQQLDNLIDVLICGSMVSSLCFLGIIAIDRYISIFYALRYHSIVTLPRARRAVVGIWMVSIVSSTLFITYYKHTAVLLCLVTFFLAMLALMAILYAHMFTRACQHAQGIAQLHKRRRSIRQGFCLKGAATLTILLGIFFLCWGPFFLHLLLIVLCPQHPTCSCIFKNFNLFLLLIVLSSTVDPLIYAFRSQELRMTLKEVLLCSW
mouse melanocortin-1 receptor (mouse), sequence (Q01727 whole entry): as above
mMC3R, sequence (P33033 whole entry): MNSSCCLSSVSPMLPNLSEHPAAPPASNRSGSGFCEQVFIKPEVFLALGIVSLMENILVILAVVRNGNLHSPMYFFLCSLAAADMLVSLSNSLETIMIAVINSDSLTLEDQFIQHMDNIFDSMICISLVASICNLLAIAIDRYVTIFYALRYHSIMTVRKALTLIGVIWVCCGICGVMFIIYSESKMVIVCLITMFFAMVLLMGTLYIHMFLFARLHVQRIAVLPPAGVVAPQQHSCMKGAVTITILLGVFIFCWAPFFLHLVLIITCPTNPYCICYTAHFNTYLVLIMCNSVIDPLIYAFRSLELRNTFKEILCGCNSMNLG
mouse melanocortin-3 receptor (mouse), sequence (P33033 whole entry): as above

Molecule | agonist EC50 (cAMP AlphaScreen, HEK293 cells stably expressing the receptor) [6] [µM] | agonist EC50 (cAMP AlphaScreen, HEK293 cells stably expressing the receptor) [7] [µM] | agonist EC50 (cAMP AlphaScreen, HEK293 cells stably expressing the receptor) [8] [µM] | also measured
C[C@@H]1NC(=O)[C@H](CO)NC(=O)[C@H](Cc2ccccc2)NC(=O)[C@H](Cc2ccccc2)NC(=O)[C@H](CCCNC(=N)N)NC(=O)[C@@H]2CCCN2C(=O)[C@H]2CCCN2C(=O)[C@H](Cc2ccccc2)NC1=O [Peptide 5, c[Pro-Arg-Phe-Phe-Ser-Ala-Phe-DPro]] | – | – | – | agonist activity at the MC1R (in words) [1]: No agonist activity; agonist activity at the MC4R (in words) [2]: No agonist activity; EC50 [3]: 0.14 µM; agonist activity at the MC3R (in words) [4]: No agonist activity
C[C@@H]1NC(=O)[C@@H](CN)NC(=O)[C@H](Cc2ccccc2)NC(=O)[C@H](Cc2ccccc2)NC(=O)[C@H](CCCNC(=N)N)NC(=O)[C@@H]2CCCN2C(=O)[C@H]2CCCN2C(=O)[C@H](Cc2ccccc2)NC1=O [Peptide 9, c[Pro-Arg-Phe-Phe-DDap-Ala-Phe-DPro]] | – | – | – | agonist activity at the MC1R (in words) [1]: no agonist activity; agonist activity at the MC4R (in words) [2]: no agonist activity; EC50 [3]: 0.11 µM; agonist activity at the MC3R (in words) [4]: no agonist activity
C[C@@H]1NC(=O)[C@H](Cc2ccccc2)NC(=O)[C@H](Cc2ccccc2)NC(=O)[C@H](Cc2ccccc2)NC(=O)[C@H](CCCNC(=N)N)NC(=O)[C@@H]2CCCN2C(=O)[C@H]2CCCN2C(=O)[C@H](Cc2ccccc2)NC1=O [Peptide 14, c[Pro-Arg-Phe-Phe-Phe-Ala-Phe-DPro]] | – | – | – | activity at the MC5R (in words) [5]: no activity
C[C@@H]1NC(=O)[C@H](Cc2c[nH]c3ccccc23)NC(=O)[C@H](Cc2ccccc2)NC(=O)[C@H](Cc2ccccc2)NC(=O)[C@H](CCCNC(=N)N)NC(=O)[C@@H]2CCCN2C(=O)[C@H]2CCCN2C(=O)[C@H](Cc2ccccc2)NC1=O [Peptide 15, c[Pro-Arg-Phe-Phe-Trp-Ala-Phe-DPro]] (cyclo(RFFWAF[dP]P)) | – | – | – | EC50 [3]: 0.15 µM
N=C(N)NCCC[C@@H]1NC(=O)[C@@H]2CCCN2C(=O)[C@H]2CCCN2C(=O)[C@H](Cc2ccccc2)NC(=O)[C@H](CCCCN)NC(=O)[C@H](CC(N)=O)NC(=O)[C@H](Cc2ccccc2)NC(=O)[C@H](Cc2ccccc2)NC1=O [Peptide 18, c[Pro-Arg-Phe-Phe-Asn-Lys-Phe-DPro]] | – | – | – | activity at the MC5R (in words) [5]: partially stimulated
N=C(N)NCCC[C@@H]1NC(=O)[C@@H]2CCCN2C(=O)[C@H]2CCCN2C(=O)[C@H](Cc2ccccc2)NC(=O)[C@H](Cc2ccccc2)NC(=O)[C@H](CC(N)=O)NC(=O)[C@H](Cc2ccccc2)NC(=O)[C@H](Cc2ccccc2)NC1=O [Peptide 20, c[Pro-Arg-Phe-Phe-Asn-Phe-Phe-DPro]] | – | – | – | activity at the MC5R (in words) [5]: partially stimulated
N=C(N)NCCC[C@@H]1NC(=O)[C@@H]2CCCN2C(=O)[C@H]2CCCN2C(=O)[C@H](Cc2ccccc2)NC(=O)[C@H](CO)NC(=O)[C@H](CC(N)=O)NC(=O)[C@H](Cc2ccccc2)NC(=O)[C@H](Cc2ccccc2)NC1=O [Peptide 21, c[Pro-Arg-Phe-Phe-Asn-Ser-Phe-DPro]] (cyclo(RFFNSF[dP]P)) | – | – | – | agonist activity at the MC1R (in words) [1]: did not possess agonist activity; agonist activity at the MC4R (in words) [2]: did not possess agonist activity; agonist activity at the MC3R (in words) [4]: did not possess agonist activity
C[C@@H]1NC(=O)[C@H](CC(N)=O)NC(=O)[C@H](Cc2ccccc2)NC(=O)[C@H](Cc2ccccc2)NC(=O)[C@H](CCCNC(=N)N)NC(=O)[C@@H]2CCCN2C(=O)[C@H]2CCCN2C(=O)[C@H](C)NC1=O [Peptide 24, c[Pro-Arg-Phe-Phe-Asn-Ala-Ala-DPro]] (cyclo(RFFNAA[dP]P)) | – | – | – | agonist activity at the MC1R (in words) [1]: no agonist activity
c[Pro-Arg-Phe-Phe-Abu-Ala-Phe-DPro] (peptide) | > 100 | > 100 | > 100 | –
c[Pro-Arg-Phe-Phe-DDap-Ala-Phe-DPro] (peptide) | > 100 | > 100 | > 100 | –
c[Pro-Arg-Phe-Phe-Dap-Ala-Phe-DPro] (peptide) | > 100 | – | > 100 | –
B1 | > 100 | > 100 | > 100 | –
B2 | > 100 | 20.5 | > 100 | –
B3 | > 100 | – | > 100 | –
B4 | > 100 | > 100 | > 100 | –
B5 | > 100 | – | > 100 | –
B6 | > 100 | > 100 | > 100 | –
B7 | > 100 | > 100 | > 100 | –
B8 | > 100 | > 100 | > 100 | –
B9 | – | – | > 100 | –
B10 | > 100 | > 100 | > 100 | –
B11 | > 100 | > 100 | > 100 | –
B12 | > 100 | > 100 | > 100 | –
B13 | > 100 | > 100 | > 100 | –
